Consider 26 molecules from US20200317768A1 (published 2020).

What is called Kd is the equilibrium constant for the complex coming apart.

Positions count from the first letter of the chain named.

Sequences and labels used below:
T1: cynomolgus monkey FcγRIIb extracellular domain with C-terminal His-tag (cynomolgus monkey)
T1 construct: also called cyno FcgRIIb; cynoFcγRIIb
T1 chain: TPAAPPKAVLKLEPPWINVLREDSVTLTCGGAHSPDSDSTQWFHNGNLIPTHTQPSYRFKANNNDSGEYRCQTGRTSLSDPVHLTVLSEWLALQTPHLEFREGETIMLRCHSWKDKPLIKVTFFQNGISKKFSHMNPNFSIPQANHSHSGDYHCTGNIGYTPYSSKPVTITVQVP

B1: M103205H795-MY340/M103202L889-SK1 (antibody, human IgG1, kappa)
heavy: QVTLKESGPVLVKPTETLTLTCTVSGIDLSHDDISWVRQAPGKGLEWVGIISYAGSTYYASWAKGRLTISKDTSKNQVVLTMTNMDPVDTATYYCARGVPAYSHGGDLWGQGTLVTVSSASTKGPSVFPLAPSSKSTSGGTAALGCLVKDYFPEPVTVSWNSGALTSGVHTFPAVLQSSGLYSLSSVVTVPSSSLGTQTYICNVNHKPSNTKVDKKVEPKSCDKTHTCPPCPAPELLLGPSVFLFPPKPKDTLMISRTPEVTCVVVDVSDEDPEVKFNWYVDGVEVHNAKTKPREELYNSTYRVVSVLTVLHQDWLNGKEYKCKVSNKALPKPIEKTISKAKGQPREPQVYTLPPSREEMTKNQVSLTCLVKGFYPSDIAVEWESNGQPENNYKTTPKVLDSDGSFFLYSKLTVDKSRWQQGNVFSCSVMHEALHNHYTQKSLSLSP
light: DIVMTQSPATLSLSPGERATLSCTSSQSVYHANWLSWFQQKPGQPPKLLIYWASTLAYGVPSRFSGSGSGTDFTLTISSLQPEDAATYYCAGGYGGGRYAFGQGTKVEIKRTVAAPSVFIFPPSDEQLKSGTASVVCLLNNFYPREAKVQWKVDNALQSGNSQESVTEQDSKDSTYSLSSTLTLSKADYEKHKVYACEVTHQGLSSPVTKSFNRGEC
notes: Substitutions introduced into M103205H795-SG1, expressed with M103202L889-SK1 as light chain; EU numbering
B2: M103205H795-MY387/M103202L889-SK1 (antibody, human IgG1, kappa)
heavy: B1 heavy with L238T, S241V, L297Q, K398P
light: B1 light
notes: as for B1
B3: M103205H795-MY530/M103202L889-SK1 (antibody, human IgG1, kappa)
heavy: B1 heavy with L238T, L297Q, K328T, K398P
light: B1 light
notes: as for B1
B4: M103205H795-MY523/M103202L889-SK1 (antibody, human IgG1, kappa)
heavy: B1 heavy with A233G, L238T, S241V, K398P
light: B1 light
notes: as for B1
B5: M103205H795-MY386/M103202L889-SK1 (antibody, human IgG1, kappa)
heavy: B1 heavy with K328T, K398P
light: B1 light
notes: as for B1
B6: M103205H795-MY525/M103202L889-SK1 (antibody, human IgG1, kappa)
heavy: B1 heavy with A233T, L238T, S241V, L297Q, K398P
light: B1 light
notes: as for B1
B7: M103205H795-MY524/M103202L889-SK1 (antibody, human IgG1, kappa)
heavy: B1 heavy with A233G, L238T, K398P
light: B1 light
notes: as for B1
B8: M103205H795-MY532/M103202L889-SK1 (antibody, human IgG1, kappa)
heavy: B1 heavy with L236W, L238T, S241V, L297Q, K398P
light: B1 light
notes: as for B1
B9: M103205H795-MY527/M103202L889-SK1 (antibody, human IgG1, kappa)
heavy: B1 heavy with A233T, L238T, K398P
light: B1 light
notes: as for B1
B10: M103205H795-MY521/M103202L889-SK1 (antibody, human IgG1, kappa)
heavy: B1 heavy with P234D, L238T, K398P
light: B1 light
notes: as for B1
B11: M103205H795-MY520/M103202L889-SK1 (antibody, human IgG1, kappa)
heavy: B1 heavy with P234D, L238T, S241V, K398P
light: B1 light
notes: as for B1
B12: M103205H795-MY526/M103202L889-SK1 (antibody, human IgG1, kappa)
heavy: B1 heavy with A233T, L238T, S241V, K398P
light: B1 light
notes: as for B1
B13: M103205H795-MY380/M103202L889-SK1 (antibody, human IgG1, kappa)
heavy: B1 heavy with L238N, D270E, L297Q
light: B1 light
notes: as for B1
B14: M103205H795-MY392/M103202L889-SK1 (antibody, human IgG1, kappa)
heavy: B1 heavy with L238T, L297Q, S300L, K398P
light: B1 light
notes: as for B1
B15: M103205H795-MY515/M103202L889-SK1 (antibody, human IgG1, kappa)
heavy: B1 heavy with L238T, S300L, K398P
light: B1 light
notes: as for B1
B16: M103205H795-MY514/M103202L889-SK1 (antibody, human IgG1, kappa)
heavy: B1 heavy with L238T, S241V, L297Q, S300L, K398P
light: B1 light
notes: as for B1
B17: M103205H795-MY389/M103202L889-SK1 (antibody, human IgG1, kappa)
heavy: B1 heavy with L238T, S241L, L297Q, K398P
light: B1 light
notes: as for B1
B18: M103205H795-MY529/M103202L889-SK1 (antibody, human IgG1, kappa)
heavy: B1 heavy with L236W, L238T, K398P
light: B1 light
notes: as for B1
B19: M103205H795-MY341/M103202L889-SK1 (antibody, human IgG1, kappa)
heavy: B1 heavy with K328T
light: B1 light
notes: as for B1
B20: M103205H795-MY522/M103202L889-SK1 (antibody, human IgG1, kappa)
heavy: B1 heavy with A233G, L238T, S241V, L297Q, K398P
light: B1 light
notes: as for B1
B21: M103205H795-MY531/M103202L889-SK1 (antibody, human IgG1, kappa)
heavy: B1 heavy with L236W, L238T, L297Q, K328T, K398P
light: B1 light
notes: as for B1
B22: M103205H795-MY516/M103202L889-SK1 (antibody, human IgG1, kappa)
heavy: B1 heavy with L238T, S241V, S300L, K398P
light: B1 light
notes: as for B1
B23: M103205H795-MY400/M103202L889-SK1 (antibody, human IgG1, kappa)
heavy: B1 heavy with L238T, L297Q, P333E, K398P
light: B1 light
notes: as for B1
B24: M103205H795-MY342/M103202L889-SK1 (antibody, human IgG1, kappa)
heavy: B1 heavy with K398M
light: B1 light
notes: as for B1
B25: M103205H795-MY388/M103202L889-SK1 (antibody, human IgG1, kappa)
heavy: B1 heavy with L238T, S241I, L297Q, K398P
light: B1 light
notes: as for B1
B26: M103205H795-MY528/M103202L889-SK1 (antibody, human IgG1, kappa)
heavy: B1 heavy with L236W, L238T, L297Q, K398P
light: B1 light
notes: as for B1

This experiment deals with T1, cynomolgus monkey FcγRIIb extracellular …. The experiment is described as follows: SPR (BIACORE), antibody captured, FcgR analyte. In general terms: Surface plasmon resonance follows binding to a sensor surface in real time, without labels.
Molecule B1 yielded a Kd of 1100 nM.

The molecule B2 registered a Kd of 830 nM.

As to B3, the Kd was determined as 320 nM.

As to B4, binding was put at a Kd of 430 nM.

On to B5, for which the Kd came out at 1500 nM.

B6 yielded a Kd of 510 nM.

The molecule B7 registered a dissociation constant (Kd) of 310 nM.

As for B8, binding was characterised by a dissociation constant (Kd) of 230 nM.

In turn, B9 had a Kd of 340 nM.

As to B10, the Kd amounted to 800 nM.

Molecule B11 registered a Kd of 960 nM.

For the molecule B12, the Kd was 450 nM.

In the case of B13, binding was put at a Kd of 290 nM.

In turn, B14 showed a dissociation constant Kd of 700 nM.

In turn, B15 displayed a Kd of 390 nM.

Regarding B16, the Kd came out at 760 nM.

With B17, binding was characterised by a dissociation constant (Kd) of 700 nM.

Regarding B18, the Kd stood at 390 nM.

Take B19: the Kd worked out at 600 nM.

With B20, binding was characterised by a dissociation constant (Kd) of 530 nM.

B21 came in with a dissociation constant Kd of 270 nM.

Molecule B22 gave a Kd of 450 nM.

B23 returned a Kd of 630 nM.

Molecule B24 yielded a Kd of 1300 nM.

In the case of B25, the Kd was determined as 760 nM.

On to B26, for which the Kd came to 410 nM.
